Target: TGF-β1 (UniProt P01137 279-390)
Experiment: cell-based or functional assay

TGF-β1, sequence (P01137 279-390 limits assumed): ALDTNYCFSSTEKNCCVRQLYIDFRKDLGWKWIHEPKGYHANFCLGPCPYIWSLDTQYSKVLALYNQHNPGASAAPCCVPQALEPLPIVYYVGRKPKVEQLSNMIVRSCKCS

| IC50, inhibition of TGF-β1 induced reporter gene activity (HEK-Blue TGF-β cells, SEAP) [pM] | Binder |
| --- | --- |
| 9 | Anti-PD1 (VL5-VH6).IgG4 (antibody, V domains shown) VH: QVQLVESGGGVVQPGRSLRLDCKASGITFSNSGMHWVRQAPGKGLEWVAVIWYDGSKRYYADSVKGRFTISRDNSKNTLFLQMNSLRAEDTAVYYCATNDDYWGQGTLVTVSS VL: EIVLTQSPATLSLSPGERATLSCRASQSVSSYLAWYQQKPGQAPRLLIYDASNRATGIPARFSGSGSGTDFTLTISSLEPEDFAVYYCQQSSNWPRTFGQGTKVEIK |
| 5.6 | Anti-PD1(VH7-VL6) IgG4-TGFβRII (antibody) heavy: QVQLVQSGVEVKKPGASVKVSCKASGYTFTNYYMYWVRQAPGQGLEWMGGINPSNGGTNFNEKFKNRVTLTTDSSTTTAYMELKSLQFDDTAVYYCARRDYRFDMGFDYWGQGTTVTVSSASTKGPSVFPLAPCSRSTSESTAALGCLVKDYFPEPVTVSWNSGALTSGVHTFPAVLQSSGLYSLSSVVTVPSSSLGTKTYTCNVDHKPSNTKVDKRVESKYGPPCPSCPAPEFLGGPSVFLFPPKPKDTLMISRTPEVTCVVVDVSQEDPEVQFNWYVDGVEVHNAKTKPREEQFNSTYRVVSVLTVLHQDWLNGKEYKCKVSNKGLPSSIEKTISKAKGQPREPQVYTLPPSQEEMTKNQVSLTCLVKGFYPSDIAVEWESNGQPENNYKTTPPVLDSDGSFFLYSRLTVDKSRWQEGNVFSCSVMHEALHNHYTQKSLSLSPGKGGGGSGGGGSIPPHVQKSVNNDMIVTDNNGAVKFPQLCKFCDVRFSTCDNQKSCMSNCSITSICEKPQEVCVAVWRKNDENITLETVCHDPKLPYHDFILEDAASPKCIMKEKKKPGETFFMCSCSSDECNDNIIFSEEYNTSNPD light: EIVLTQSPATLSLSPGERATLSCRASKGVSTSGYSYLHWYQQKPGQAPRLLIYLASYLESGVPARFSGSGSGTDFTLTISSLEPEDFAVYYCQHSRDLPLTFGGGTKVEIKRTVAAPSVFIFPPSDEQLKSGTASVVCLLNNFYPREAKVQWKVDNALQSGNSQESVTEQDSKDSTYSLSSTLTLSKADYEKHKVYACEVTHQGLSSPVTKSFNRGEC |
| 9.3 | Anti-PD1 (VL6-VH7).IgG4(S108P).TGFbRII (antibody) heavy: not shown light: EIVLTQSPATLSLSPGERATLSCRASKGVSTSGYSYLHWYQQKPGQAPRLLIYLASYLESGVPARFSGSGSGTDFTLTISSLEPEDFAVYYCQHSRDLPLTFGGGTKVEIKRTVAAPSVFIFPPSDEQLKSGTASVVCLLNNFYPREAKVQWKVDNALQSGNSQESVTEQDSKDSTYSLSSTLTLSKADYEKHKVYACEVTHQGLSSPVTKSFNRGEC |

Target: T1, PD-1 Fc fusion protein (UniProt Q15116 25-167, limits assumed)
T1 construct: Antigen immobilised on the CM5 chip in all PD-1 SPR assays; also called PD-1 fused to human Fc region; PD-1-Fc antigen; not shown: human Fc region
T1 sequence (Q15116 25-167 limits assumed): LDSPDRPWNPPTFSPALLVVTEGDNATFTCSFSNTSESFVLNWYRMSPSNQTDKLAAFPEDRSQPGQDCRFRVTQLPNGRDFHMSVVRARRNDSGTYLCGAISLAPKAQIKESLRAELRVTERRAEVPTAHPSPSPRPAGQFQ
Experiment: SPR (Biacore 3000), recombinant PD-1 Fc immobilised on CM5 chip, fusion protein injected
Method: Surface plasma resonance (SPR) analysis was performed using Biacore3000, CM5 chip, an amine-coupling kit, 10×HBS-P running buffer and Glycine for. […] Dissociation was allowed to proceed followed by regeneration of the chip surface.

| Kd [pM] | Binder |
| --- | --- |
| 0.509 | Anti-PD1 (VH7-VL6) IgG1-ADA2 (antibody, not shown: IgG1 heavy chain constant region; light chain constant region) heavy (part 1 of 2): QVQLVQSGVEVKKPGASVKVSCKASGYTFTNYYMYWVRQAPGQGLEWMGGINPSNGGTNFNEKFKNRVTLTTDSSTTTAYMELKSLQFDDTAVYYCARRDYRFDMGFDYWGQGTTVTVSS heavy (part 2 of 2): GGGGSGGGGSSIDETRAHLLLKEKMMRLGGRLVLNTKEELANERLMTLKIAEMKEAMRTLIFPPSMHFFQAKHLIERSQVFNILRMMPKGAALHLHDIGIVTMDWLVRNVTYRPHCHICFTPRGIMQFRFAHPTPRPSEKCSKWILLEDYRKRVQNVTEFDDSLLRNFTLVTQHPEVIYTNQNVVWSKFETIFFTISGLIHYAPVFRDYVFRSMQEFYEDNVLYMEIRARLLPVYELSGEHHDEEWSVKTYQEVAQKFVETHPEFIGIKIIYSDHRSKDVAVIAESIRMAMGLRIKFPTVVAGFDLVGHEDTGHSLHDYKEALMIPAKDGVKLPYFFHAGETDWQGTSIDRNILDALMLNTTRIGHGFALSKHPAVRTYSWKKDIPIEVCPISNQVLKLVSDLRNHPVATLMATGHPMVISSDDPAMFGAKGLSYDFYEVFMGIGGMKADLRTLKQLAMNSIKYSTLLESEKNTFMEIWKKRWDKFIADVATK light: EIVLTQSPATLSLSPGERATLSCRASKGVSTSGYSYLHWYQQKPGQAPRLLIYLASYLESGVPARFSGSGSGTDFTLTISSLEPEDFAVYYCQHSRDLPLTFGGGTKVEIK |
| 130 | Anti-PD1 (VH7-VL6) scFv-ADA2 (scFv) chain 1: QVQLVQSGVEVKKPGASVKVSCKASGYTFTNYYMYWVRQAPGQGLEWMGGINPSNGGTNFNEKFKNRVTLTTDSSTTTAYMELKSLQFDDTAVYYCARRDYRFDMGFDYWGQGTTVTVSS chain 2: EIVLTQSPATLSLSPGERATLSCRASKGVSTSGYSYLHWYQQKPGQAPRLLIYLASYLESGVPARFSGSGSGTDFTLTISSLEPEDFAVYYCQHSRDLPLTFGGGTKVEIK chain 3: GGGGSGGGGSSIDETRAHLLLKEKMMRLGGRLVLNTKEELANERLMTLKIAEMKEAMRTLIFPPSMHFFQAKHLIERSQVFNILRMMPKGAALHLHDIGIVTMDWLVRNVTYRPHCHICFTPRGIMQFRFAHPTPRPSEKCSKWILLEDYRKRVQNVTEFDDSLLRNFTLVTQHPEVIYTNQNVVWSKFETIFFTISGLIHYAPVFRDYVFRSMQEFYEDNVLYMEIRARLLPVYELSGEHHDEEWSVKTYQEVAQKFVETHPEFIGIKIIYSDHRSKDVAVIAESIRMAMGLRIKFPTVVAGFDLVGHEDTGHSLHDYKEALMIPAKDGVKLPYFFHAGETDWQGTSIDRNILDALMLNTTRIGHGFALSKHPAVRTYSWKKDIPIEVCPISNQVLKLVSDLRNHPVATLMATGHPMVISSDDPAMFGAKGLSYDFYEVFMGIGGMKADLRTLKQLAMNSIKYSTLLESEKNTFMEIWKKRWDKFIADVATK |
| 0.0616 | Anti-PD1 (VH6-VL5) IgG4-ADA2 (antibody, not shown: IgG4 heavy chain constant region) heavy (part 1 of 2): QVQLVESGGGVVQPGRSLRLDCKASGITFSNSGMHWVRQAPGKGLEWVAVIWYDGSKRYYADSVKGRFTISRDNSKNTLFLQMNSLRAEDTAVYYCATNDDYWGQGTLVTVSS heavy (part 2 of 2): GGGGSGGGGSSIDETRAHLLLKEKMMRLGGRLVLNTKEELANERLMTLKIAEMKEAMRTLIFPPSMHFFQAKHLIERSQVFNILRMMPKGAALHLHDIGIVTMDWLVRNVTYRPHCHICFTPRGIMQFRFAHPTPRPSEKCSKWILLEDYRKRVQNVTEFDDSLLRNFTLVTQHPEVIYTNQNVVWSKFETIFFTISGLIHYAPVFRDYVFRSMQEFYEDNVLYMEIRARLLPVYELSGEHHDEEWSVKTYQEVAQKFVETHPEFIGIKIIYSDHRSKDVAVIAESIRMAMGLRIKFPTVVAGFDLVGHEDTGHSLHDYKEALMIPAKDGVKLPYFFHAGETDWQGTSIDRNILDALMLNTTRIGHGFALSKHPAVRTYSWKKDIPIEVCPISNQVLKLVSDLRNHPVATLMATGHPMVISSDDPAMFGAKGLSYDFYEVFMGIGGMKADLRTLKQLAMNSIKYSTLLESEKNTFMEIWKKRWDKFIADVATK light: not shown |
| 0.0663 | Anti-PD1 (VH7-VL6) IgG4-ADA2 (antibody, not shown: IgG4 heavy chain constant region) heavy (part 1 of 2): QVQLVQSGVEVKKPGASVKVSCKASGYTFTNYYMYWVRQAPGQGLEWMGGINPSNGGTNFNEKFKNRVTLTTDSSTTTAYMELKSLQFDDTAVYYCARRDYRFDMGFDYWGQGTTVTVSS heavy (part 2 of 2): GGGGSGGGGSSIDETRAHLLLKEKMMRLGGRLVLNTKEELANERLMTLKIAEMKEAMRTLIFPPSMHFFQAKHLIERSQVFNILRMMPKGAALHLHDIGIVTMDWLVRNVTYRPHCHICFTPRGIMQFRFAHPTPRPSEKCSKWILLEDYRKRVQNVTEFDDSLLRNFTLVTQHPEVIYTNQNVVWSKFETIFFTISGLIHYAPVFRDYVFRSMQEFYEDNVLYMEIRARLLPVYELSGEHHDEEWSVKTYQEVAQKFVETHPEFIGIKIIYSDHRSKDVAVIAESIRMAMGLRIKFPTVVAGFDLVGHEDTGHSLHDYKEALMIPAKDGVKLPYFFHAGETDWQGTSIDRNILDALMLNTTRIGHGFALSKHPAVRTYSWKKDIPIEVCPISNQVLKLVSDLRNHPVATLMATGHPMVISSDDPAMFGAKGLSYDFYEVFMGIGGMKADLRTLKQLAMNSIKYSTLLESEKNTFMEIWKKRWDKFIADVATK light: EIVLTQSPATLSLSPGERATLSCRASKGVSTSGYSYLHWYQQKPGQAPRLLIYLASYLESGVPARFSGSGSGTDFTLTISSLEPEDFAVYYCQHSRDLPLTFGGGTKVEIKRTVAAPSVFIFPPSDEQLKSGTASVVCLLNNFYPREAKVQWKVDNALQSGNSQESVTEQDSKDSTYSLSSTLTLSKADYEKHKVYACEVTHQGLSSPVTKSFNRGEC |

— patent US20240141045A1 (PRECIGEN, published 2024)
